From patent publication US20140212888A1 (published 2014)

Columns and labels:
Experiment in all cases: multimer staining
[1] = molecular target: T1, WT1 (wildtype WT1 peptide) peptide on HLA-A*24:02 (human)
T1 peptide: CMTWNQMNL

[2] = molecular target: T2, WT1 (mutant WT1 peptide: second methionine of the wildtype peptide substituted with tyrosine) peptide on … (human)
T2 peptide: CYTWNQMNL

[3] = molecular target: T3, HIV (human immunodeficiency virus) envelope peptide on HLA-A*24:02 (human)
T3 peptide: RYLRDQQLL

B1: WT1 TCR A12-3/B5-1 (TCR, V domains shown)
Valpha: QKEVEQDPGPLSVPEGAIVSLNCTYSNSAFQYFMWYRQYSRKGPELLMYTYSSGNKEDGRFTAQVDKSSKYISLFIRDSQPSDSATYLCATSNAGGTSYGKLTFGQGTILTVHP
Vbeta: KAGVTQTPRYLIKTRGQQVTLSCSPISGHRSVSWYQQTPGQGLQFLFEYFSETQRNKGNFPGRFSGRQFSNSRSEMNVSTLELGDSALYLCASSYGERERKGETQYFGPGTRLLVL
[1]
  binding result: recognises
[2]
  binding result: recognises
[3]
  binding result: no recognition
